9 molecules from patent publication US12698507B2, “Methods and compositions for conferring and/or enhancing herbicide tolerance using protoporphyrinogen IX oxidase of various cyanobacteria or variant thereof” (FarmHannong Co., Ltd., priority 2019, dated 2026) can be followed below.

Changes are numbered by the printed parent chain. In names and notes the source's numbering stands.

B1: CyPPO19 V165S + L327T + F360T: variant of CyPPO19 PPO protein (SEQ ID NO: 1) (protein)
chain: MSEVDVAIVGGGLSGLSLAWRLQQSAPQYSVVLLEASDRLGGNITTQTAEGFVWELGPNSFAPTPALLQLIAEVGLQSELIRGDRHLPRYIYWRGQLYPLQPTRPLALATSNLLSPWGKVRAALGALGFVPPYLGSGDESVNSFFRRHLGQEVAERLVAPFVSGSYAGDPQQLSAAAAFRRIAQLEKLGGGLIAGALHLRRQQAPKPKPPTSVQMRPGELGSFKEGLAALPRAIAQQLKAPIHLQTPVQEITPDPKGGYLLRSGEQTWRARSVVLATPAYQTAELVAPFQPAIARVLATIPYPTVACVVLAYPAGLGRSVRPGFGVTIPRSQGIRTLGTIWSSCLFPQRTPAGWQVFTSTIGGATDPDLASLSEEAIVQQVQQDLNRLLDLPAAKARLLGMKVWRRAIPQYMVGYPEQWQQVTHALSQTPGLFLCSNYAEGVALGDRVEHGNRTAAAVAAYLSGGQP
modifications: Synthetic_PPO of Thermosynechococcus elongatus PKUAC-SCTE542 (comprising GenBank No. CP032152.1)
B2: CyPPO19 A167I + L327T + F360V: variant of CyPPO19 PPO protein (SEQ ID NO: 1) (protein)
chain: B1 chain with S165V, A167I, T360V
modifications: Synthetic_PPO of Thermosynechococcus elongatus PKUAC-SCTE542 (comprising GenBank No. CP032152.1)
B3: CyPPO19 V165C + I408W + F360T: variant of CyPPO19 PPO protein (SEQ ID NO: 1) (protein)
chain: B1 chain with S165C, T327L, I408W
modifications: Synthetic_PPO of Thermosynechococcus elongatus PKUAC-SCTE542 (comprising GenBank No. CP032152.1)
B4: CyPPO19 A167I + V305M + F360L: variant of CyPPO19 PPO protein (SEQ ID NO: 1) (protein)
chain: B1 chain with S165V, A167I, V305M, T327L, T360L
modifications: Synthetic_PPO of Thermosynechococcus elongatus PKUAC-SCTE542 (comprising GenBank No. CP032152.1)
B5: CyPPO19 A167C + V305L + F360V: variant of CyPPO19 PPO protein (SEQ ID NO: 1) (protein)
chain: B1 chain with S165V, A167C, V305L, T327L, T360V
modifications: Synthetic_PPO of Thermosynechococcus elongatus PKUAC-SCTE542 (comprising GenBank No. CP032152.1)
B6: CyPPO19 A167C + L327T + F360I: variant of CyPPO19 PPO protein (SEQ ID NO: 1) (protein)
chain: B1 chain with S165V, A167C, T360I
modifications: Synthetic_PPO of Thermosynechococcus elongatus PKUAC-SCTE542 (comprising GenBank No. CP032152.1)
B7: CyPPO19 V165C + I408W + F360V: variant of CyPPO19 PPO protein (SEQ ID NO: 1) (protein)
chain: B1 chain with S165C, T327L, T360V, I408W
modifications: Synthetic_PPO of Thermosynechococcus elongatus PKUAC-SCTE542 (comprising GenBank No. CP032152.1)
B8: CyPPO19 A167L + V305M + F360T: variant of CyPPO19 PPO protein (SEQ ID NO: 1) (protein)
chain: B1 chain with S165V, A167L, V305M, T327L
modifications: Synthetic_PPO of Thermosynechococcus elongatus PKUAC-SCTE542 (comprising GenBank No. CP032152.1)
B9: CyPPO19 A167L + L327T + F360M: variant of CyPPO19 PPO protein (SEQ ID NO: 1) (protein)
chain: B1 chain with S165V, A167L, T360M
modifications: Synthetic_PPO of Thermosynechococcus elongatus PKUAC-SCTE542 (comprising GenBank No. CP032152.1)

The test system of this experiment is PPO-deficient BT3 E. coli (ΔPPO). In words: PPO-inhibiting herbicide tolerance test of PPO variants in E. coli (growth on herbicide-containing LB agar). It is filed as cell-based. The settings on record: CyPPO19 variants in BT3 (ΔPPO) E. coli; LB agar with 0 to 2,000 μM herbicide, 37° C., dark, 16-20 hours. The gist of the method: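 Transformants were grown to OD600 0.5–1, adjusted to OD600=0.5 and spotted as 10-fold dilutions on LB agar with ampicillin (100 μg/mL) and 0 to 2,000 μM herbicide. Plates were kept at 37° C in the dark for 16-20 hours; growth was scored relative to wild type, one '+' per 10-fold resistance.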
For B1, the “tolerance level relative to wild type, Carfentrazone” value is “+ (‘+’ per each 10-fold resistance)”; the “tolerance level relative to wild type, Flumioxazin” value is given as “+++++ (until ‘+++++’ as maximal resistance)”; the “tolerance level relative to wild type, Fomesafen” value is “+++ (‘+’ per each 10-fold resistance)”; the “tolerance level relative to wild type, Oxyfluorfen” value is recorded as “++ (‘+’ per each 10-fold resistance)”. For the same molecule, the “tolerance level relative to wild type, Saflufenacil” value is “++++ (‘+’ per each 10-fold resistance)”; the “tolerance level relative to wild type, Sulfentrazone” value is recorded as “+++ (‘+’ per each 10-fold resistance)”; the “tolerance level relative to wild type, Tiafenacil” value is “++++ (‘+’ per each 10-fold resistance)”.

In the case of B2, the “tolerance level relative to wild type, Carfentrazone” value was “+ (‘+’ per each 10-fold resistance)”; the “tolerance level relative to wild type, Flumioxazin” value was “+++++ (until ‘+++++’ as maximal resistance)”; the “tolerance level relative to wild type, Fomesafen” value is “+++ (‘+’ per each 10-fold resistance)”; the “tolerance level relative to wild type, Oxyfluorfen” value is “+++ (‘+’ per each 10-fold resistance)”. Besides, the “tolerance level relative to wild type, Saflufenacil” value is listed as “+++++ (until ‘+++++’ as maximal resistance)”; the “tolerance level relative to wild type, Sulfentrazone” value is “+++++ (until ‘+++++’ as maximal resistance)”; the “tolerance level relative to wild type, Tiafenacil” value is “+++++ (until ‘+++++’ as maximal resistance)”.

B3: the “tolerance level relative to wild type, Carfentrazone” value is given as “+ (‘+’ per each 10-fold resistance)”; the “tolerance level relative to wild type, Flumioxazin” value is reported as “++++ (‘+’ per each 10-fold resistance)”; the “tolerance level relative to wild type, Fomesafen” value is listed as “+ (‘+’ per each 10-fold resistance)”; the “tolerance level relative to wild type, Oxyfluorfen” value is listed as “++ (‘+’ per each 10-fold resistance)”. Also, the “tolerance level relative to wild type, Saflufenacil” value was “++++ (‘+’ per each 10-fold resistance)”; the “tolerance level relative to wild type, Sulfentrazone” value is reported as “+++ (‘+’ per each 10-fold resistance)”; the “tolerance level relative to wild type, Tiafenacil” value is reported as “++++ (‘+’ per each 10-fold resistance)”.

As for B4, the “tolerance level relative to wild type, Carfentrazone” value was “+ (‘+’ per each 10-fold resistance)”; the “tolerance level relative to wild type, Flumioxazin” value is “+++++ (until ‘+++++’ as maximal resistance)”; the “tolerance level relative to wild type, Fomesafen” value is “+++ (‘+’ per each 10-fold resistance)”; the “tolerance level relative to wild type, Oxyfluorfen” value was “+++ (‘+’ per each 10-fold resistance)”. Besides, the “tolerance level relative to wild type, Saflufenacil” value is “+++++ (until ‘+++++’ as maximal resistance)”; the “tolerance level relative to wild type, Sulfentrazone” value was “+++++ (until ‘+++++’ as maximal resistance)”; the “tolerance level relative to wild type, Tiafenacil” value is reported as “+++++ (until ‘+++++’ as maximal resistance)”.

As for B5, the “tolerance level relative to wild type, Carfentrazone” value is reported as “+ (‘+’ per each 10-fold resistance)”; the “tolerance level relative to wild type, Flumioxazin” value was “+++++ (until ‘+++++’ as maximal resistance)”; the “tolerance level relative to wild type, Fomesafen” value is on record as “+ (‘+’ per each 10-fold resistance)”; the “tolerance level relative to wild type, Oxyfluorfen” value was “++ (‘+’ per each 10-fold resistance)”. Moreover, the “tolerance level relative to wild type, Saflufenacil” value is listed as “+++++ (until ‘+++++’ as maximal resistance)”; the “tolerance level relative to wild type, Sulfentrazone” value is listed as “+ (‘+’ per each 10-fold resistance)”; the “tolerance level relative to wild type, Tiafenacil” value is on record as “++++ (‘+’ per each 10-fold resistance)”.

On to B6, for which the “tolerance level relative to wild type, Carfentrazone” value is given as “+ (‘+’ per each 10-fold resistance)”; the “tolerance level relative to wild type, Flumioxazin” value is given as “++++ (‘+’ per each 10-fold resistance)”; the “tolerance level relative to wild type, Fomesafen” value is “++ (‘+’ per each 10-fold resistance)”; the “tolerance level relative to wild type, Oxyfluorfen” value is given as “+++ (‘+’ per each 10-fold resistance)”. In addition, the “tolerance level relative to wild type, Saflufenacil” value was “+++ (‘+’ per each 10-fold resistance)”; the “tolerance level relative to wild type, Sulfentrazone” value was “++++ (‘+’ per each 10-fold resistance)”; the “tolerance level relative to wild type, Tiafenacil” value is on record as “++++ (‘+’ per each 10-fold resistance)”.

In the case of B7, the “tolerance level relative to wild type, Carfentrazone” value is “+ (‘+’ per each 10-fold resistance)”; the “tolerance level relative to wild type, Flumioxazin” value was “++++ (‘+’ per each 10-fold resistance)”; the “tolerance level relative to wild type, Fomesafen” value was “+++ (‘+’ per each 10-fold resistance)”; the “tolerance level relative to wild type, Oxyfluorfen” value was “++++ (‘+’ per each 10-fold resistance)”. Also, the “tolerance level relative to wild type, Saflufenacil” value is “++++ (‘+’ per each 10-fold resistance)”; the “tolerance level relative to wild type, Sulfentrazone” value is on record as “+++ (‘+’ per each 10-fold resistance)”; the “tolerance level relative to wild type, Tiafenacil” value is listed as “++++ (‘+’ per each 10-fold resistance)”.

Regarding B8, the “tolerance level relative to wild type, Carfentrazone” value is “+ (‘+’ per each 10-fold resistance)”; the “tolerance level relative to wild type, Flumioxazin” value is recorded as “+++++ (until ‘+++++’ as maximal resistance)”; the “tolerance level relative to wild type, Fomesafen” value was “+++ (‘+’ per each 10-fold resistance)”; the “tolerance level relative to wild type, Oxyfluorfen” value is listed as “+++ (‘+’ per each 10-fold resistance)”. The “tolerance level relative to wild type, Saflufenacil” value is “+++++ (until ‘+++++’ as maximal resistance)”; the “tolerance level relative to wild type, Sulfentrazone” value is listed as “+++++ (until ‘+++++’ as maximal resistance)”; the “tolerance level relative to wild type, Tiafenacil” value is “++++ (‘+’ per each 10-fold resistance)”.

B9: the “tolerance level relative to wild type, Carfentrazone” value was “+ (‘+’ per each 10-fold resistance)”; the “tolerance level relative to wild type, Flumioxazin” value was “+++++ (until ‘+++++’ as maximal resistance)”; the “tolerance level relative to wild type, Fomesafen” value is recorded as “+++ (‘+’ per each 10-fold resistance)”; the “tolerance level relative to wild type, Oxyfluorfen” value is given as “+++ (‘+’ per each 10-fold resistance)”. For the same molecule, the “tolerance level relative to wild type, Saflufenacil” value is recorded as “+++++ (until ‘+++++’ as maximal resistance)”; the “tolerance level relative to wild type, Sulfentrazone” value is reported as “+++++ (until ‘+++++’ as maximal resistance)”; the “tolerance level relative to wild type, Tiafenacil” value is given as “+++++ (until ‘+++++’ as maximal resistance)”.
